The results in this text go back to US20220332804A1 (CSL INNOVATION, published 2022).

What all share (assay): SPR, antibody captured, C2 as analyte;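 note: biacore SPR at 37 °C, anti-C2 mAbs captured via goat anti-human IgG on CM5 chips, double-referenced sensorgrams fit to a 1:1 kinetic or steady-state model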
Background: SPR reads the build-up and loss of mass on a sensor chip optically.

In one assay the target is T1, human C2 K485A (human, UniProt P06681 21-752).
T1 sequence: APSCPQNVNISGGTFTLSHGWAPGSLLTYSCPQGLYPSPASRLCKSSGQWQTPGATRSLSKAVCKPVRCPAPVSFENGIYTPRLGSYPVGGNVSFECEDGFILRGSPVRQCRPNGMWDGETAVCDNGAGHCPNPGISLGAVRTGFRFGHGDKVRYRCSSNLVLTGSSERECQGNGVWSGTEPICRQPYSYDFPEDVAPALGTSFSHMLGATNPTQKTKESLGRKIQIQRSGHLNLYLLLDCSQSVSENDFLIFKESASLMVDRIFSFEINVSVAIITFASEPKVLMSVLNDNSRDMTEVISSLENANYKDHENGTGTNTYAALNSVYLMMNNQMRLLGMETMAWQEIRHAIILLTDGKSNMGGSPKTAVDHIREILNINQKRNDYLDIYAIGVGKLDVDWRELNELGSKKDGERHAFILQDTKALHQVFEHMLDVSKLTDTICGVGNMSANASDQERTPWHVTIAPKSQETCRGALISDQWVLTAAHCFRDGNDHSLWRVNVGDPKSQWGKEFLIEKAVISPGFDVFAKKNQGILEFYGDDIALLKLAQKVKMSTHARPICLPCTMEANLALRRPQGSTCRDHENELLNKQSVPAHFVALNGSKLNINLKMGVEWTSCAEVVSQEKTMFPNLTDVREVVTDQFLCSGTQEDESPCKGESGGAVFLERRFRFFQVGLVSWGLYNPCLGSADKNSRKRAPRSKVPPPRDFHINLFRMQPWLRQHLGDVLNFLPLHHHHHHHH

The target in another assay is T2, human C2 D417A (human, UniProt P06681 21-752).
T2 sequence: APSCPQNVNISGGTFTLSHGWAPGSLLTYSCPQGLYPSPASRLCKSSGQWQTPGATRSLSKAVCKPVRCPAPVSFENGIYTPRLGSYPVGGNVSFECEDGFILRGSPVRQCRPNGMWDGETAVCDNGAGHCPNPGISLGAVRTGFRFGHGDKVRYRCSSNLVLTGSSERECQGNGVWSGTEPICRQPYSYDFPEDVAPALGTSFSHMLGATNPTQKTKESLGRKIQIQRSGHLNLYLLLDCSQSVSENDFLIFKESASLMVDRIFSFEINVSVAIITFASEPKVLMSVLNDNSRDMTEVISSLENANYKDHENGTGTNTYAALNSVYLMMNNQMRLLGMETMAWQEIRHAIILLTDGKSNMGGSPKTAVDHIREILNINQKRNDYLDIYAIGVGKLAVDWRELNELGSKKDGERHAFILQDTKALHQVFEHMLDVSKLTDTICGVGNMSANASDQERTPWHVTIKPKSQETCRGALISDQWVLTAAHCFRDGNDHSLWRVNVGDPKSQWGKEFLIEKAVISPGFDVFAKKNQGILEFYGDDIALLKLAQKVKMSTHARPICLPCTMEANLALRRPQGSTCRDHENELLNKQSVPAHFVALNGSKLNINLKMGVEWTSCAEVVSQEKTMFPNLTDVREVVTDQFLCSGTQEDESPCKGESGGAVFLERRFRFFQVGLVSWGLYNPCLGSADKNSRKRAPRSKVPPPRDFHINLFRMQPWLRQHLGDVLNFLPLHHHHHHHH

The target in another assay is T3, human C2 E645A (human, UniProt P06681 21-752).
T3 sequence: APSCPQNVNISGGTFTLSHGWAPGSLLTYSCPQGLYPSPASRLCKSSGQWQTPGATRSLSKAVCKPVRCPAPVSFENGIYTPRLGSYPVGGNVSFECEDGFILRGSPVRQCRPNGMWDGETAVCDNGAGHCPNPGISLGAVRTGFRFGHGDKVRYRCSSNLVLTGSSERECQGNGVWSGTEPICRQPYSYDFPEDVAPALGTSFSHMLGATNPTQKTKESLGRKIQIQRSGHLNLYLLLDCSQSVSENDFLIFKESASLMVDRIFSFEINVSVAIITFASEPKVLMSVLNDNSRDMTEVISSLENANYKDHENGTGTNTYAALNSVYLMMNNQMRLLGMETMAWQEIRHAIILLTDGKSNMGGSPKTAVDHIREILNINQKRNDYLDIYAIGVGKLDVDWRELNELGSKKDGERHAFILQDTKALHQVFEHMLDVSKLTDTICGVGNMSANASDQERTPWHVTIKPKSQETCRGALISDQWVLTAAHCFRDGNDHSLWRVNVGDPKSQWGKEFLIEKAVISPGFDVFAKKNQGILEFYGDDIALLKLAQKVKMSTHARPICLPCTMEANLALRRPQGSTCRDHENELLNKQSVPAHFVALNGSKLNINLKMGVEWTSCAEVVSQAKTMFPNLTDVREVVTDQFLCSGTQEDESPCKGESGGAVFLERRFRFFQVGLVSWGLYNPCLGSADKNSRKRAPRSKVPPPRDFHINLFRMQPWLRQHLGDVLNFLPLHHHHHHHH

Another assay has as its target T4, human C2 A717S (human, UniProt P06681 21-752).
T4 sequence: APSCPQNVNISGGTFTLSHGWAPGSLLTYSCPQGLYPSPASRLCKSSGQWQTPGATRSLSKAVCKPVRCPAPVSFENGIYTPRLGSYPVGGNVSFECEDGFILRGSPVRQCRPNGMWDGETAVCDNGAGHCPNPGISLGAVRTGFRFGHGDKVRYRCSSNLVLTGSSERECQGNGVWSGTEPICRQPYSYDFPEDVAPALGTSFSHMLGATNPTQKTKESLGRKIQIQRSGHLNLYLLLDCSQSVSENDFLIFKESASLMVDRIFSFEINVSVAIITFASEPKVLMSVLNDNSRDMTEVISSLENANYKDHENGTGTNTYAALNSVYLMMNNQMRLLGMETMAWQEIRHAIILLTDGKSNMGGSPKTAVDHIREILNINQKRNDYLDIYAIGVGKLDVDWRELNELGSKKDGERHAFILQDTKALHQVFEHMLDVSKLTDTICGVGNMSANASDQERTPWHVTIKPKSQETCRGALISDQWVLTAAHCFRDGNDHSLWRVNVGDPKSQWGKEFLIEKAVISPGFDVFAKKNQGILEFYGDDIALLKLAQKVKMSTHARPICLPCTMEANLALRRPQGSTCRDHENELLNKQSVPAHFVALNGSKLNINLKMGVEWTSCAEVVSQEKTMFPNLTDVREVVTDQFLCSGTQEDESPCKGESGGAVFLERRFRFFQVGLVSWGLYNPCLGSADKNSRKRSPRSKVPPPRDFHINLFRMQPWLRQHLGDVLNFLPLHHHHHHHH

Description for human C2 A717S: (§1) Surface plasmon resonance (SPR, Biacore) was used for all binding affinity analyses. In brief, goat anti-human IgG was directly immobilised onto the carboxymethyl dextran surface of CM5 sensorchips to approximately 12,000 RU using standard NHS/EDC chemistry at pH 5. The immobilised antibody surface was pre-conditioned with ten injections of polyclonal human IgG (Privigen 60 s) prepared at 1 μg/mL. Ligands (anti-C2 mAbs) were captured at the beginning of each cycle as described below. An adjacent spot or flow cell in which only Polyclonal IgG was capture was used as a reference surface. The goat anti-human IgG Fc antibody surface was regenerate in 100 mM H3PO4, injected for 45 seconds at the end of each cycle. Experiments were performed at 37° C. and the flow rate of each experiment was kept constant at 30 μL/min.
(§2) Sensogram data was double-referenced against a reference anti-IgG surface (i.e. minus anti-C2 mAb) and blank buffer injections obtained within each experiment. The binding data was fit to 1:1 (kinetic or steady-state) model using local Rmax and null refraction index (RI=0) when appropriate. Buffers and solutions were filtered (0.22 μm) prior to use.
Description for human C2 D417A: as §1, §2
Description for human C2 E645A: as §1, §2
Description for human C2 K485A: as §1, §2

B1: RF16-226 (antibody, human IgG4 S228P, lambda)
heavy: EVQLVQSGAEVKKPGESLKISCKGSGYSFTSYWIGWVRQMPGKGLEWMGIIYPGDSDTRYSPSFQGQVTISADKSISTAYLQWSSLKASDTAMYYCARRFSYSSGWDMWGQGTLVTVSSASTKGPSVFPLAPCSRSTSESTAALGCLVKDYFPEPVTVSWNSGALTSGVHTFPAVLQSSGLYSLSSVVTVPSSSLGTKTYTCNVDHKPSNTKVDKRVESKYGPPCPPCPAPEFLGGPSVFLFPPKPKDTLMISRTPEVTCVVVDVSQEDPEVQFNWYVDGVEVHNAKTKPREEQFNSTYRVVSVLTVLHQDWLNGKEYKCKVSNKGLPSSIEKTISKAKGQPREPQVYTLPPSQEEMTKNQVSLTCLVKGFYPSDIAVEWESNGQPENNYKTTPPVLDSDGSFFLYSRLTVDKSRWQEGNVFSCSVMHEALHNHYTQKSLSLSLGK
light: SYELTQPPSVSVSPGQTARITCSGDALTSKYVAWYQQKSGLAPLLVIYEDTRRPSGIPAKFSGSSSGSVATLTISGAHGDDEADYYCYSTDASGHQRVFGGGTKLTVLSQPKAAPSVTLFPPSSEELQANKATLVCLISDFYPGAVTVAWKADGSPVKAGVETTKPSKQSNNKYAASSYLSLTPEQWKSHRSYSCQVTHEGSTVEKTVAPTECS
notes: pH-dependent anti-C2 antibody from a phage display library; also called WT
A word on the Kd: it is the free concentration of one partner at which half of the binding sites on the other are occupied at equilibrium, for simple one-to-one binding. The low end stands for tighter binding, the high end for weaker binding. As to B1, the equilibrium dissociation constant (Kd) with human C2 K485A turned out to be 12.5 nM; with human C2 D417A it was 17.9 nM; with human C2 E645A, 14 nM; in the assay with human C2 A717S, 406 nM.
